Reference: US20180171001A1
Where a chain is given by its changes, count along the chain named.

B1: γ44κ11 (antibody, V domains shown)
VH: QIHLVQSGTEVKKPGSSVTVSCKAYEVNTFGLYAVNWVRQAPGQSLEYIGQIWRWKSSASHHFRGRVLISAVDLTGSSPPISSLEIKNVTSDDTAVYFCTTTSTHDKWSGLHHDGVMAFSSWGQGTLISVSA
VL: DIQMTQSPSTLSASVGGTVRISCRASQSITGGWLAWYHQRPGKAPRLLIYRGSRLLGGVPSRFSGSAAGTDFTLTIANLQAEDFGTFYCQQYDTYPGTFGQGTKVEVKR
B2: γ59κ11 (antibody, V domains shown)
VH: B1 VH with E26G, S45G, H105Y, K107E, G110D
VL: B1 VL
B3: γ46κ18 (antibody, V domains shown)
VH: B1 VH with E26G, S45G, H105Y, M117V
VL: B1 VL with G17D, T70A
B4: γ52κ11 (antibody, V domains shown)
VH: B1 VH with E26G, V89L, H105Y, K107R
VL: B1 VL
B5: γ20κ18 (antibody, V domains shown)
VH: B1 VH with T19A, E26G, H62D, L68I, V89L, T101A, H105P, K107Y
VL: B1 VL with G17D, T70A
B6: γ3κ18 (antibody, V domains shown)
VH: QIHLVQSGTEVKKPGSSVTVSCKAYGVNTFGLYAVSWVRQAPGQRLEYIGQIRRWKSSASHHFRGRVTVSAVDPTGSSPPISSLEIRDLTTDDTAVYFCTTTSTSDYWSGLHNERGTAFSSWGQGTLISVSA
VL: B1 VL with G17D, T70A
B7: γ23κ18 (antibody, V domains shown)
VH: B1 VH with E26G, L68I, V89L, H105S, K107Y
VL: B1 VL with G17D, T70A
B8: γ4κ18 (antibody, V domains shown)
VH: B1 VH with E26G, L68I, S83P, V89L, H105S, K107R
VL: B1 VL with G17D, T70A
B9: γ46κ11 (antibody, V domains shown)
VH: B1 VH with E26G, S45G, H105Y, M117V
VL: B1 VL
B10: γ22κ18 (antibody, V domains shown)
VH: B1 VH with E26G, S77P, V89L, H105Y
VL: B1 VL with G17D, T70A

What follows are binders tested against Env of HIV-1 strain REJO4541.67 (HIV-1) (assay: cell-based or functional assay).
Work on B1 yielded a neutralization IC50 greater than 15 µg/mL.
B2 gave a neutralization IC50 of 1.57 µg/mL.
B3 showed a neutralization IC50 greater than 15 µg/mL.
With B4 the neutralization IC50 was 3.47 µg/mL.
Binder B5 has a neutralization IC50 greater than 15 µg/mL.
In the case of B6, the neutralization IC50 is reported as 0.049 µg/mL.
With B7 the neutralization IC50 was 0.061 µg/mL.
For B8, the neutralization IC50 was greater than 15 µg/mL.
B9 gave a neutralization IC50 greater than 15 µg/mL.
Work on B10 yielded a neutralization IC50 greater than 15 µg/mL.

Each binder was assayed against Env of HIV-1 strain 3365.v2.c20 (HIV-1) (assay: cell-based or functional assay).
B1 gave a neutralization IC50 greater than 15 µg/mL.
B2 gave a neutralization IC50 greater than 15 µg/mL.
For B3, the neutralization IC50 was greater than 15 µg/mL.
B4 showed a neutralization IC50 greater than 15 µg/mL.
With B5 the neutralization IC50 was greater than 15 µg/mL.
Binder B6 has a neutralization IC50 greater than 15 µg/mL.
B7 gave a neutralization IC50 greater than 15 µg/mL.
B8 gave a neutralization IC50 greater than 15 µg/mL.
Binder B9 has a neutralization IC50 greater than 15 µg/mL.
Binder B10 has a neutralization IC50 greater than 15 µg/mL.

What follows are binders tested against Env of HIV-1 strain 231965.c1 (HIV-1) (assay: cell-based or functional assay).
With B1 the neutralization IC50 was greater than 15 µg/mL.
For B2, the neutralization IC50 was greater than 15 µg/mL.
B3 gave a neutralization IC50 of 4.16 µg/mL.
B4 gave a neutralization IC50 of 0.298 µg/mL.
In the case of B5, the neutralization IC50 is reported as greater than 15 µg/mL.
B6 was tested, and the neutralization IC50 was 0.163 µg/mL.
Work on B7 yielded a neutralization IC50 of 0.128 µg/mL.
Binder B8 has a neutralization IC50 greater than 15 µg/mL.
In the case of B9, the neutralization IC50 is reported as 2.95 µg/mL.
With B10 the neutralization IC50 was 26 µg/mL.

These binders were tested against Env of HIV-1 strain Du172.17 (HIV-1) (assay: cell-based or functional assay).
With B1 the neutralization IC50 was greater than 15 µg/mL.
B2 showed a neutralization IC50 greater than 15 µg/mL.
With B3 the neutralization IC50 was greater than 15 µg/mL.
Binder B4 has a neutralization IC50 greater than 15 µg/mL.
In the case of B5, the neutralization IC50 is reported as greater than 15 µg/mL.
Work on B6 yielded a neutralization IC50 of 11.5 µg/mL.
In the case of B7, the neutralization IC50 is reported as 2.95 µg/mL.
B8 showed a neutralization IC50 greater than 15 µg/mL.
Work on B9 yielded a neutralization IC50 greater than 15 µg/mL.
With B10 the neutralization IC50 was greater than 15 µg/mL.

The binders below were run against Env of HIV-1 strain PVO.4 (HIV-1) (assay: cell-based or functional assay).
For B1, the neutralization IC50 was greater than 15 µg/mL.
Binder B2 has a neutralization IC50 greater than 15 µg/mL.
Binder B3 has a neutralization IC50 of 2.1 µg/mL.
For B4, the neutralization IC50 was 0.103 µg/mL.
B5 gave a neutralization IC50 greater than 15 µg/mL.
For B6, the neutralization IC50 was 0.028 µg/mL.
In the case of B7, the neutralization IC50 is reported as 0.047 µg/mL.
Work on B8 yielded a neutralization IC50 greater than 15 µg/mL.
In the case of B9, the neutralization IC50 is reported as 2.92 µg/mL.
Binder B10 has a neutralization IC50 greater than 15 µg/mL.

The binders below were run against Env of HIV-1 strain 3415.v1.c1 (HIV-1) (assay: cell-based or functional assay).
In the case of B1, the neutralization IC50 is reported as greater than 15 µg/mL.
B2 was tested, and the neutralization IC50 was greater than 15 µg/mL.
B3 was tested, and the neutralization IC50 was greater than 15 µg/mL.
B4 showed a neutralization IC50 greater than 15 µg/mL.
B5 was tested, and the neutralization IC50 was greater than 15 µg/mL.
B6 gave a neutralization IC50 greater than 15 µg/mL.
Binder B7 has a neutralization IC50 greater than 15 µg/mL.
Work on B8 yielded a neutralization IC50 greater than 15 µg/mL.
For B9, the neutralization IC50 was greater than 15 µg/mL.
Binder B10 has a neutralization IC50 greater than 15 µg/mL.

The binders below were run against Env of HIV-1 strain 250-4 (HIV-1) (assay: cell-based or functional assay).
B1 was tested, and the neutralization IC50 was greater than 15 µg/mL.
B2 gave a neutralization IC50 greater than 15 µg/mL.
In the case of B3, the neutralization IC50 is reported as greater than 15 µg/mL.
Work on B4 yielded a neutralization IC50 greater than 15 µg/mL.
B5 was tested, and the neutralization IC50 was greater than 15 µg/mL.
Binder B6 has a neutralization IC50 greater than 15 µg/mL.
With B7 the neutralization IC50 was greater than 15 µg/mL.
In the case of B8, the neutralization IC50 is reported as greater than 15 µg/mL.
B9 was tested, and the neutralization IC50 was greater than 15 µg/mL.
B10 was tested, and the neutralization IC50 was greater than 15 µg/mL.

These binders were tested against Env of HIV-1 strain R1166.c1 (HIV-1) (assay: cell-based or functional assay).
B1 showed a neutralization IC50 greater than 15 µg/mL.
For B2, the neutralization IC50 was 12.6 µg/mL.
Binder B3 has a neutralization IC50 of 4.1 µg/mL.
B4 showed a neutralization IC50 of 1.16 µg/mL.
Work on B5 yielded a neutralization IC50 of 20 µg/mL.
B6 gave a neutralization IC50 of 0.578 µg/mL.
B7 was tested, and the neutralization IC50 was 0.708 µg/mL.
B8 showed a neutralization IC50 greater than 15 µg/mL.
B9 showed a neutralization IC50 of 3.39 µg/mL.
For B10, the neutralization IC50 was 7.31 µg/mL.

The binders below were run against Env of HIV-1 strain 251-18 (HIV-1) (assay: cell-based or functional assay).
B1 showed a neutralization IC50 greater than 15 µg/mL.
For B2, the neutralization IC50 was greater than 15 µg/mL.
For B3, the neutralization IC50 was greater than 15 µg/mL.
B4 showed a neutralization IC50 of 0.647 µg/mL.
B5 gave a neutralization IC50 greater than 15 µg/mL.
Work on B6 yielded a neutralization IC50 greater than 15 µg/mL.
B7 gave a neutralization IC50 of 1.58 µg/mL.
For B8, the neutralization IC50 was greater than 15 µg/mL.
B9 gave a neutralization IC50 greater than 15 µg/mL.
B10 was tested, and the neutralization IC50 was greater than 15 µg/mL.

The binders below were run against Env of HIV-1 strain X1254_c3 (HIV-1) (assay: cell-based or functional assay).
With B1 the neutralization IC50 was greater than 15 µg/mL.
Work on B2 yielded a neutralization IC50 of 4.67 µg/mL.
In the case of B3, the neutralization IC50 is reported as 4.2 µg/mL.
In the case of B4, the neutralization IC50 is reported as 2.42 µg/mL.
In the case of B5, the neutralization IC50 is reported as 5.22 µg/mL.
B6 was tested, and the neutralization IC50 was 0.616 µg/mL.
For B7, the neutralization IC50 was 0.545 µg/mL.
With B8 the neutralization IC50 was 16.2 µg/mL.
B9 was tested, and the neutralization IC50 was 5.68 µg/mL.
With B10 the neutralization IC50 was 1.58 µg/mL.

What follows are binders tested against Env of HIV-1 strain 3016.v5.c45 (HIV-1) (assay: cell-based or functional assay).
For B1, the neutralization IC50 was greater than 15 µg/mL.
Work on B2 yielded a neutralization IC50 greater than 15 µg/mL.
B3 showed a neutralization IC50 of 2.99 µg/mL.
For B4, the neutralization IC50 was 0.161 µg/mL.
B5 gave a neutralization IC50 greater than 15 µg/mL.
B6 was tested, and the neutralization IC50 was 0.057 µg/mL.
Work on B7 yielded a neutralization IC50 of 0.047 µg/mL.
For B8, the neutralization IC50 was greater than 15 µg/mL.
B9 gave a neutralization IC50 of 1.93 µg/mL.
B10 showed a neutralization IC50 of 13.3 µg/mL.

These binders were tested against Env of HIV-1 strain YU2.DG (HIV-1) (assay: cell-based or functional assay).
With B1 the neutralization IC50 was greater than 15 µg/mL.
Binder B2 has a neutralization IC50 of 6.91 µg/mL.
Binder B3 has a neutralization IC50 of 2.36 µg/mL.
B4 was tested, and the neutralization IC50 was 0.298 µg/mL.
B5 gave a neutralization IC50 greater than 15 µg/mL.
Binder B6 has a neutralization IC50 of 0.07 µg/mL.
With B7 the neutralization IC50 was 0.117 µg/mL.
Work on B8 yielded a neutralization IC50 greater than 15 µg/mL.
Binder B9 has a neutralization IC50 of 2.1 µg/mL.
In the case of B10, the neutralization IC50 is reported as 8.23 µg/mL.

What follows are binders tested against Env of HIV-1 strain ZM109F.PB4 (HIV-1) (assay: cell-based or functional assay).
B1 showed a neutralization IC50 greater than 15 µg/mL.
B2 was tested, and the neutralization IC50 was greater than 15 µg/mL.
B3 showed a neutralization IC50 greater than 15 µg/mL.
For B4, the neutralization IC50 was greater than 15 µg/mL.
Work on B5 yielded a neutralization IC50 greater than 15 µg/mL.
In the case of B6, the neutralization IC50 is reported as greater than 15 µg/mL.
B7 showed a neutralization IC50 greater than 15 µg/mL.
B8 was tested, and the neutralization IC50 was greater than 15 µg/mL.
Binder B9 has a neutralization IC50 greater than 15 µg/mL.
With B10 the neutralization IC50 was greater than 15 µg/mL.

What follows are binders tested against Env of HIV-1 strain H086.8 (HIV-1) (assay: cell-based or functional assay).
B1 showed a neutralization IC50 greater than 15 µg/mL.
With B2 the neutralization IC50 was greater than 15 µg/mL.
In the case of B3, the neutralization IC50 is reported as greater than 15 µg/mL.
In the case of B4, the neutralization IC50 is reported as 1.64 µg/mL.
Work on B5 yielded a neutralization IC50 greater than 15 µg/mL.
B6 gave a neutralization IC50 of 0.209 µg/mL.
B7 showed a neutralization IC50 greater than 15 µg/mL.
With B8 the neutralization IC50 was greater than 15 µg/mL.
B9 showed a neutralization IC50 greater than 15 µg/mL.
Work on B10 yielded a neutralization IC50 greater than 15 µg/mL.

The binders below were run against Env of HIV-1 strain ZM53M.PB12 (HIV-1) (assay: cell-based or functional assay).
Binder B1 has a neutralization IC50 greater than 15 µg/mL.
With B2 the neutralization IC50 was greater than 15 µg/mL.
B3 was tested, and the neutralization IC50 was greater than 15 µg/mL.
B4 gave a neutralization IC50 greater than 15 µg/mL.
For B5, the neutralization IC50 was greater than 15 µg/mL.
With B6 the neutralization IC50 was greater than 15 µg/mL.
For B7, the neutralization IC50 was greater than 15 µg/mL.
B8 gave a neutralization IC50 greater than 15 µg/mL.
In the case of B9, the neutralization IC50 is reported as greater than 15 µg/mL.
For B10, the neutralization IC50 was greater than 15 µg/mL.

The binders below were run against Env of MuLV (assay: cell-based or functional assay).
Work on B1 yielded a neutralization IC50 greater than 19 µg/mL.
Work on B2 yielded a neutralization IC50 greater than 30 µg/mL.
Binder B3 has a neutralization IC50 greater than 15 µg/mL.
In the case of B4, the neutralization IC50 is reported as greater than 30 µg/mL.
With B5 the neutralization IC50 was greater than 30 µg/mL.
With B6 the neutralization IC50 was greater than 30 µg/mL.
B7 was tested, and the neutralization IC50 was greater than 30 µg/mL.
In the case of B8, the neutralization IC50 is reported as greater than 30 µg/mL.
Binder B9 has a neutralization IC50 greater than 30 µg/mL.
B10 was tested, and the neutralization IC50 was greater than 30 µg/mL.
